These results are taken from patent publication EP4721754A1 (Hangzhou Sciwind Biosciences Co., Ltd., dated 2026).

Common to all, as to experiment: cell-based or functional assay
For experiment [1], the target named is T1, amylin receptor (hAMY3R) (human, UniProt P30988 25-474; O60896 24-148).
T1 sequence (looked up) 1: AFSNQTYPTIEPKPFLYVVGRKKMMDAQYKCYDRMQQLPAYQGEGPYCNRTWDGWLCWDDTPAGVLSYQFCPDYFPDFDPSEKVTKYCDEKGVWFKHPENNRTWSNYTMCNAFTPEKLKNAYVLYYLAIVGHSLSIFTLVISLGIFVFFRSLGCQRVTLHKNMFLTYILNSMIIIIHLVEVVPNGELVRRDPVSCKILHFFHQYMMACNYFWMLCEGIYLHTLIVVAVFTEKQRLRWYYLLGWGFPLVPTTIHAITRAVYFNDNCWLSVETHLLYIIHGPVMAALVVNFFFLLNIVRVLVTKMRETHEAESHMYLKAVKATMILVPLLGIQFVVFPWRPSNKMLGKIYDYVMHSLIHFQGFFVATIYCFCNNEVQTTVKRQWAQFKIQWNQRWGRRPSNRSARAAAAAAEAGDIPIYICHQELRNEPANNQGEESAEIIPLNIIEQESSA
T1 sequence (looked up) 2: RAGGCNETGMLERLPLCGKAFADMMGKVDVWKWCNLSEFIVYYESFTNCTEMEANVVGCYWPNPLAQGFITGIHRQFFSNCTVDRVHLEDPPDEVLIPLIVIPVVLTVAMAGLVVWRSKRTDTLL

Experiment [2] has as its target T2, calcitonin receptor (hCTR) (human, UniProt P30988 25-474).
T2 sequence (looked up): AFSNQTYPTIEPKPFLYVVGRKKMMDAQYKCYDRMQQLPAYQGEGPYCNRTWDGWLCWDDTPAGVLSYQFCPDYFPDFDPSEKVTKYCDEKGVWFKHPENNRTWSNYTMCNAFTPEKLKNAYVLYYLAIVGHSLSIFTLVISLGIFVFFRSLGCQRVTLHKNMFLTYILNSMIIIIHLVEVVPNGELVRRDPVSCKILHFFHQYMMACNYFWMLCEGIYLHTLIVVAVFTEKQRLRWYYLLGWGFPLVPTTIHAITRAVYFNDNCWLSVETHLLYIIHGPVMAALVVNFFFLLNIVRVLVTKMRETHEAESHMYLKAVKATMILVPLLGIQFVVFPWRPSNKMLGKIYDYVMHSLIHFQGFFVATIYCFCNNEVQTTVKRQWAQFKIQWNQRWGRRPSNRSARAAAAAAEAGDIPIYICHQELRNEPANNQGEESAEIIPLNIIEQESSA

Experiment [3] deals with T1, amylin receptor (hAMY3R). The source holds these as a separate data set.
The target in experiment [4] is T2, calcitonin receptor (hCTR). This is another data set of the same source.
Experiment [5] addresses T1, amylin receptor (hAMY3R). The source holds these as a separate data set.

Numbered stars: 1 amine (or outer) side, 2 acyl side, 3 side chain; on linkers, the order of the positions; unused ones are H or OH. Square brackets hold non-standard residues; d marks the D form. Primed or numbered codes have the meaning given here. * marks the point of attachment. C20 diacid = O=C(O)CCCCCCCCCCCCCCCCCCC(=O)*; C18 diacid = O=C(O)CCCCCCCCCCCCCCCCC(=O)*; γGlu = O=C(O)[C@H](CCC(=O)[*:2])N[*:1]; Inp′ = not defined here; AEEA = NCCOCCOCC(=O)O

B1: M24 (peptide)
peptide: {C18 diacid}-E[AEEA][AEEA]ASQLSTAVLGRLSDELHRLQDYPRTDVGSGSP-NH2
Regarding B1, the “Fold change in activity against hAMY3R (benchmark D1)” value in the experiment with amylin receptor (hAMY3R) [1] is 5.14 fold. Further, in experiment [2], the “Fold change in activity against hCTR (benchmark D1)” value came out at 1.06 fold. For the same molecule, the “EC50, CRE-luciferase reporter in amylin receptor/CRE-luc CHO cells, 24 h” value in the experiment with amylin receptor (hAMY3R) [3] came to 0.007 nM. In addition, the “EC50, CRE-luciferase reporter in calcitonin receptor/CRE-luc CHO cells, 24 h” value in experiment [4] is 0.081 nM.

B2: M17 (peptide)
peptide: {C18 diacid-Inp′}-ASQLSTAVLGRLSDELHRLQDYPRTDVGSGSP-NH2
As for B2, in the experiment with amylin receptor (hAMY3R) [1], the “Fold change in activity against hAMY3R (benchmark D1)” value came to 0.571 fold. Further, the “Fold change in activity against hCTR (benchmark D1)” value in experiment [2] was 0.332 fold. Besides, the “EC50, CRE-luciferase reporter in amylin receptor/CRE-luc CHO cells, 24 h” value with amylin receptor (hAMY3R) [3] amounted to 0.063 nM. Further, in experiment [4], the “EC50, CRE-luciferase reporter in calcitonin receptor/CRE-luc CHO cells, 24 h” value is 0.259 nM.

B3: M6 (peptide)
peptide: {C20 diacid-γGlu}-ASQLSTAVLGRLSDELHRLQDYPRTDVGSGSP-NH2
modifications: ends and bridges not checked
In the case of B3, in the experiment with amylin receptor (hAMY3R) [1], the “Fold change in activity against hAMY3R (benchmark D1)” value turned out to be 2.12 fold. In addition, the “Fold change in activity against hCTR (benchmark D1)” value in experiment [2] amounted to 3.07 fold. In the experiment with amylin receptor (hAMY3R) [3], the “EC50, CRE-luciferase reporter in amylin receptor/CRE-luc CHO cells, 24 h” value came to 0.017 nM. The “EC50, CRE-luciferase reporter in calcitonin receptor/CRE-luc CHO cells, 24 h” value in experiment [4] came to 0.028 nM.

B4: M16 (peptide)
peptide: ASQLSTAVLGRLSDELHRLQDYPRTDVGSGSP
modifications: not fully specified; N terminus: C20 diacid + Inp
For the molecule B4, the “Fold change in activity against hAMY3R (benchmark D1)” value with amylin receptor (hAMY3R) [1] was determined as 0.439 fold. Besides, the “Fold change in activity against hCTR (benchmark D1)” value in experiment [2] stood at 0.229 fold. Also, the “EC50, CRE-luciferase reporter in amylin receptor/CRE-luc CHO cells, 24 h” value with amylin receptor (hAMY3R) [3] was 0.082 nM. Further, the “EC50, CRE-luciferase reporter in calcitonin receptor/CRE-luc CHO cells, 24 h” value in experiment [4] was 0.376 nM.

B5: M30 (peptide)
peptide: {C18 diacid-Inp′-AEEA-AEEA}-ASQLSTAVLGRLSDELHRLQDYPRTDVGSGSP-NH2
In the case of B5, the “Fold change in activity against hAMY3R (benchmark D1)” value in the experiment with amylin receptor (hAMY3R) [1] worked out at 36 fold. In experiment [2], the “Fold change in activity against hCTR (benchmark D1)” value was found to be 0.848 fold and the “hCTR EC50, CRE-luciferase reporter cells” value came to 0.101 nM. The “fold increase of agonistic activity against the amylin receptor, compared with M17” value in the experiment with amylin receptor (hAMY3R) [5] was roughly 70 fold. Further, the “EC50, CRE-luciferase reporter in amylin receptor/CRE-luc CHO cells, 24 h” value with amylin receptor (hAMY3R) [3] was determined as 0.001 nM.
